Assay results reported in article PMC11700639.

Target: T1, MPZ-GFP (human), P25189
T1 chain: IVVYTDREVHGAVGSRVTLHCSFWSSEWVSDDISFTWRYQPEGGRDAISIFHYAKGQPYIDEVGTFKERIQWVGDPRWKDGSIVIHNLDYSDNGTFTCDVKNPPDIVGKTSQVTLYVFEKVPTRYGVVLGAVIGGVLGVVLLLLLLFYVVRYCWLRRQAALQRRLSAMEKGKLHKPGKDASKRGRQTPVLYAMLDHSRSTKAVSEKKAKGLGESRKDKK
Assay: FRET or BRET
Details: remark: other sources report otherwise

FRET efficiency: 5.3%
B1: MPZ-mCherry, P25189 30-248 (natural protein)
chain: T1 chain
